Data: the Human Domainome abundance scans (Beltran et al. 2025)

B1: Friend leukemia integration 1 transcription factor, residues 116 to 197; numbered along this chain, Q01543 (parent)
chain: NMTTNERRVIVPADPTLWTQEHVRQWLEWAIKEYSLMEIDTSFFQNMDGKELCKMNKEDFLRATTLYNTEVLLSHLSYLRES

Variants of: B1
Test: abundance fitness (aPCA) (normalised: wild type 0, dead -1); higher = more abundant; growth selection in yeast, the domain comes from the species named
Details: Homo sapiens

Abundance fitness of substitutions, site by site:
T19: R -0.12 | I -0.529 | P -1.02 | K -0.12 | E -0.597 | W -0.796
V11: A 0.118 | H -0.032 | S 0.156 | M 0.114 | N 0.094 | P 0.245 | R 0.232 | F 0.166 | C 0.217 | I -0.019 | Q -0.024 | D -0.004 | K 0.148 | W 0.198 | G 0.061 | E 0.015 | T 0.077 | Y 0.031
W18: K -1.18 | Q -0.891 | Y -0.759 | S -0.981 | M -0.616 | D -0.803 | R -0.563 | L -0.868 | P -0.753 | G -0.458 | A -0.879 | F -0.719
T16: M -0.022 | C -0.357 | R -0.139 | P -0.277 | A 0.086 | K -0.057 | F 0 | W -0.021 | S -0.087 | L -0.108 | D -0.082 | N -0.22 | V -0.052 | E -0.159 | G -0.142 | Y -0.166 | I -0.036 | Q -0.306
T3: I -0.078 | H -0.359 | S 0.06 | W -0.022 | P -0.246 | Y -0.201 | F 0.111 | M 0.037 | Q -0.136 | N -0.076 | V -0.201 | R -0.169 | K 0.185 | L -0.076 | G -0.098
I10: R 0.098 | P 0.26 | C -0.258 | F -0.216 | Y -0.237 | K 0.086 | N 0.103 | W -0.197 | E 0.231 | Q 0.03 | L -0.148 | G 0.163 | V 0.035 | T 0.092 | M -0.012 | H -0.033 | S 0.231 | D 0.207 | A 0.15
L17: I 0.024 | S 0.008 | G 0.09 | M -0.328 | D 0.224 | F -0.132 | A 0.032 | V 0.018 | R -0.042 | Y -0.096 | K -0.085 | N -0.289 | T -0.011 | H 0.081 | E 0.087 | Q 0.037 | W -0.203
H22: C -0.529 | P -1.02 | L -0.386 | Y -0.365 | N -0.007 | A -0.318 | G -0.106 | R -0.266 | I -0.201 | D 0.116 | M 0.028 | V -0.17 | E 0.062 | Q 0.045 | S -0.246 | T -0.274 | K -0.199
E21: G -0.151 | V -0.111 | C -0.371 | K -0.243 | I -0.474 | S -0.086 | W -0.295 | M -0.045 | A 0.017 | Q 0.066 | L -0.096 | T -0.131 | D -0.084 | N -0.091
V23: G -0.931 | Q -0.92 | M -0.844 | D -0.759 | S -0.538 | T -0.23 | A -0.632 | P -0.044 | L -0.175 | C -0.752 | F -0.686 | R -0.74 | K -0.752 | W -0.814 | I -0.386
R7: Y -0.125 | I -0.247 | K -0.292 | S -0.156 | Q -0.092 | A -0.243 | W -0.179 | V -0.05 | P -0.045 | F -0.179 | M -0.089 | E -0.044 | L 0.155 | C -0.06 | H -0.284 | G -0.135
